Target: T1, SF3b core complex, 6xHis-tagged (SF3B1 454–1304, 6xHis-SF3B3, SF3B5, PHF5A) (human, UniProt O75533 454-1304; Q15393 1-1217; Q9BWJ5 1-86; Q7RTV0 1-110)
T1 construct: SF3B1, human, residues 454-1304; SF3B3, human, full-length cDNA; SF3B5, human, full-length cDNA; PHF5A, human, full-length cDNA; the 6xHis tag replaces the N-terminal Twin-Strep tag of SF3B3, so it is probably N-terminal; also called SF3b core (6xHis-tagged); source: HEK293F, co-transfected, purified; prepared as the SF3b core except that the Strep-tag on SF3B3 was replaced by a 6xHis tag; …
T1 sequence (O75533 454-1304, chain 1 of 4): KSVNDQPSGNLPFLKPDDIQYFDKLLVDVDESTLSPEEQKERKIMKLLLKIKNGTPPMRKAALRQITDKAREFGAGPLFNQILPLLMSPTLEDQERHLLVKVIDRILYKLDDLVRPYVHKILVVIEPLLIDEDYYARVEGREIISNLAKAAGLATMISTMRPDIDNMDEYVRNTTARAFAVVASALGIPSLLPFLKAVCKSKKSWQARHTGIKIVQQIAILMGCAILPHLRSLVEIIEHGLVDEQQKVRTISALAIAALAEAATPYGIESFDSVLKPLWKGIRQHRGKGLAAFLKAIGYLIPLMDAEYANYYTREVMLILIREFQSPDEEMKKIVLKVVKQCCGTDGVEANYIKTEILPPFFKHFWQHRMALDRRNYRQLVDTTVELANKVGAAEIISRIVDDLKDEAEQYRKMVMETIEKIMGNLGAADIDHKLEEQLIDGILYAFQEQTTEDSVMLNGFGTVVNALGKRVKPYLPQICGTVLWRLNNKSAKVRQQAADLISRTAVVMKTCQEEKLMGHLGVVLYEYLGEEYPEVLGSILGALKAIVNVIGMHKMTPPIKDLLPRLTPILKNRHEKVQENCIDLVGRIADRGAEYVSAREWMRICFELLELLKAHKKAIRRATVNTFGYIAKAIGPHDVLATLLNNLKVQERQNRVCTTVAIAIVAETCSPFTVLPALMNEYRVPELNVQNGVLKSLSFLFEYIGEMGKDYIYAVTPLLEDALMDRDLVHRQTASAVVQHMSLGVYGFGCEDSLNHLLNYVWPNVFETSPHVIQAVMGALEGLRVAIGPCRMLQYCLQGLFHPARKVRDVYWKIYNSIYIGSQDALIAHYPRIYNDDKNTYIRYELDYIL
T1 sequence (Q15393 whole entry, chain 2 of 4, the tested form may be a part): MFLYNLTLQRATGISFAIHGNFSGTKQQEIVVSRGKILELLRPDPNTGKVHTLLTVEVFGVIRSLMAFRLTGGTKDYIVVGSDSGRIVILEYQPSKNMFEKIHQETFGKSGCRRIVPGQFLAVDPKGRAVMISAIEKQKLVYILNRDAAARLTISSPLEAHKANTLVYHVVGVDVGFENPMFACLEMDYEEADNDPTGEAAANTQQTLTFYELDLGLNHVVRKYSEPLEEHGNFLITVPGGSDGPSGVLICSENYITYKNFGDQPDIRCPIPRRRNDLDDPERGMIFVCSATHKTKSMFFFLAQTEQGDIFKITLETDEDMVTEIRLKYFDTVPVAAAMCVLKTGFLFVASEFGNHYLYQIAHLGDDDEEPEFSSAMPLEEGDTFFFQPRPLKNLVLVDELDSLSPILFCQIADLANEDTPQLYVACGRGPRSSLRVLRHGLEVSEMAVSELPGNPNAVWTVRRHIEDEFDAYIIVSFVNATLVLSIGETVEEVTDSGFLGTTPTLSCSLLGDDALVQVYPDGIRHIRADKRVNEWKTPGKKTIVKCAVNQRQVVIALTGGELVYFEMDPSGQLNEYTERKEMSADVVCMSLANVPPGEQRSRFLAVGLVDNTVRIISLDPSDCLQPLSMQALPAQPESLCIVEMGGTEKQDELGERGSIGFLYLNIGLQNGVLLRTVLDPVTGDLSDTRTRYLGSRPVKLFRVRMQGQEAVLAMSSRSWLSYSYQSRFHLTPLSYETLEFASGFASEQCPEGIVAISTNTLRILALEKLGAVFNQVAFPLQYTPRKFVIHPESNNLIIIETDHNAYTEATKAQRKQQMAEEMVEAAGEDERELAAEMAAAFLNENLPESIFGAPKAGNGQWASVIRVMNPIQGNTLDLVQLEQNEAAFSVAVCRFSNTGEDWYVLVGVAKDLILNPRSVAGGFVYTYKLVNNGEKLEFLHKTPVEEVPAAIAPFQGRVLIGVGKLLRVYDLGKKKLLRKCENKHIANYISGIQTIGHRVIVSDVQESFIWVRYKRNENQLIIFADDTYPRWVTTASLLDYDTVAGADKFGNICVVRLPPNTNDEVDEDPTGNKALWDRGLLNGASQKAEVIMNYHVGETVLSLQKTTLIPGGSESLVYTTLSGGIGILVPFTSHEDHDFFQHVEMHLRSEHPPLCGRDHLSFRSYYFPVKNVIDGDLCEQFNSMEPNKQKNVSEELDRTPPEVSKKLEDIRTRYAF
T1 sequence (Q9BWJ5 whole entry, chain 3 of 4, the tested form may be a part): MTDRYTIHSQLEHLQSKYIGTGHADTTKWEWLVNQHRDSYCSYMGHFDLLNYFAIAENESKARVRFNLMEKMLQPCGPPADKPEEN
T1 sequence (Q7RTV0 whole entry, chain 4 of 4, the tested form may be a part): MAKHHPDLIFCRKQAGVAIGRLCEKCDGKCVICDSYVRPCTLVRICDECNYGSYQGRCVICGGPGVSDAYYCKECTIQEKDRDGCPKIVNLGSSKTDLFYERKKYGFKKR
Experiment: BLI; 6xHis-tagged SF3b core (20 µg/mL) captured on Ni-NTA biosensors; Flag-DDX42 or Flag-DDX46 as analyte; lysis buffer (20 mM HEPES-KOH pH 7.9, 150 mM NaCl, 1.5 mM MgCl2, 0.05% NP-40); about 100 s association, 100 s dissociation; 1:1 model; apparent constants
Details: both partners purified

B1: Flag-DDX42 (full-length) (natural protein)
chain: MNWNKGGPGTKRGFGFGGFAISAGKKEEPKLPQQSHSAFGATSSSSGFGKSAPPQLPSFYKIGSKRANFDEENAYFEDEEEDSSNVDLPYIPAENSPTRQQFHSKPVDSDSDDDPLEAFMAEVEDQAARDMKRLEEKDKERKNVKGIRDDIEEEDDQEAYFRYMAENPTAGVVQEEEEDNLEYDSDGNPIAPTKKIIDPLPPIDHSEIDYPPFEKNFYNEHEEITNLTPQQLIDLRHKLNLRVSGAAPPRPGSSFAHFGFDEQLMHQIRKSEYTQPTPIQCQGVPVALSGRDMIGIAKTGSGKTAAFIWPMLIHIMDQKELEPGDGPIAVIVCPTRELCQQIHAECKRFGKAYNLRSVAVYGGGSMWEQAKALQEGAEIVVCTPGRLIDHVKKKATNLQRVSYLVFDEADRMFDMGFEYQVRSIASHVRPDRQTLLFSATFRKKIEKLARDILIDPIRVVQGDIGEANEDVTQIVEILHSGPSKWNWLTRRLVEFTSSGSVLLFVTKKANAEELANNLKQEGHNLGLLHGDMDQSERNKVISDFKKKDIPVLVATDVAARGLDIPSIKTVINYDVARDIDTHTHRIGRTGRAGEKGVAYTLLTPKDSNFAGDLVRNLEGANQHVSKELLDLAMQNAWFRKSRFKGGKGKKLNIGGGGLGYRERPGLGSENMDRGNNNVMSNYEAYKPSTGAMGDRLTAMKAAFQSQYKSHFVAASLSNQKAGSSAAGASGWTSAGSLNSVPTNSAQQGHNSPDSPVTSAAKGIPGFGNTGNISGAPVTYPSAGAQGVNNTASGNNSREGTGGSNGKRERYTENRGSSRHSHGETGNRHSDSPRHGDGGRHGDGYRHPESSSRHTDGHRHGENRHGGSAGRHGENRGANDGRNGESRKEAFNRESKMEPKMEPKVDSSKMDKVDSKTDKTADGFAVPEPPKRKKSRWDS
notes: DDX42, human, full-length cDNA; N-plug residues 69-81, helix alpha-3 114-135, helices alpha-2/alpha-1 145-167, helicase domain 207-643; source: HEK293F, transfected (pCAG): co-expressed with the SF3b core; alone as bait in lysate; not shown: Flag, N-terminal, kept
  Kd: 23 nM

B2: Flag-DDX46 (natural protein)
chain: MGRESRHYRKRSASRGRSGSRSRSRSPSDKRSKRGDDRRSRSRDRDRRRERSRSRDKRRSRSRDRKRLRRSRSRERDRSRERRRSRSRDRRRSRSRSRGRRSRSSSPGNKSKKTENRSRSKEKTDGGESSKEKKKDKDDKEDEKEKDAGNFDQNKLEEEMRKRKERVEKWREEQRKKAMENIGELKKEIEEMKQGKKWSLEDDDDDEDDPAEAEKEGNEMEGEELDPLDAYMEEVKEEVKKFNMRSVKGGGGNEKKSGPTVTKVVTVVTTKKAVVDSDKKKGELMENDQDAMEYSSEEEEVDLQTALTGYQTKQRKLLEPVDHGKIEYEPFRKNFYVEVPELAKMSQEEVNVFRLEMEGITVKGKGCPKPIKSWVQCGISMKILNSLKKHGYEKPTPIQTQAIPAIMSGRDLIGIAKTGSGKTIAFLLPMFRHIMDQRSLEEGEGPIAVIMTPTRELALQITKECKKFSKTLGLRVVCVYGGTGISEQIAELKRGAEIIVCTPGRMIDMLAANSGRVTNLRRVTYVVLDEADRMFDMGFEPQVMRIVDNVRPDRQTVMFSATFPRAMEALARRILSKPIEVQVGGRSVVCSDVEQQVIVIEEEKKFLKLLELLGHYQESGSVIIFVDKQEHADGLLKDLMRASYPCMSLHGGIDQYDRDSIINDFKNGTCKLLVATSVAARGLDVKHLILVVNYSCPNHYEDYVHRAGRTGRAGNKGYAYTFITEDQARYAGDIIKALELSGTAVPPDLEKLWSDFKDQQKAEGKIIKKSSGFSGKGFKFDETEQALANERKKLQKAALGLQDSDDEDAAVDIDEQIESMFNSKKRVKDMAAPGTSSVPAPTAGNAEKLEIAKRLALRINAQKNLGIESQDVMQQATNAILRGGTILAPTVSAKTIAEQLAEKINAKLNYVPLEKQEEERQDGGQNESFKRYEEELEINDFPQTARWKVTSKEALQRISEYSEAAITIRGTYFPPGKEPKEGERKIYLAIESANELAVQKAKAEITRLIKEELIRLQNSYQPTNKGRYKVL
notes: DDX46, human; source: HEK293F, overexpressed, purified (anti-Flag M2, Hitrap Heparin)
  Kd: 66 nM

Source: article PMC9935549, “Mechanisms of the RNA helicases DDX42 and DDX46 in human U2 snRNP assembly” (Nature Communications, 2023)
